This test deals with T1, recombinant human insulin-like growth factor-1 (rhIGF-1) (human, UniProt P05019 49-118).
T1 construct: Soluble protein used for crystallization, sedimentation equilibrium and NMR; It was uniformly 13C/15N labelled for the NMR complex with IGF-F1-1; also called human IGF-1; 13C/15N IGF-1
Briefly: NMR structure of the complex (figure legend).

T1 sequence (P05019 49-118): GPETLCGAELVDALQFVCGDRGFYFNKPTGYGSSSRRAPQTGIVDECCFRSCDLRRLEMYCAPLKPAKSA

B1: phage-derived IGF-1 antagonist peptide IGF-F1-1 (peptide)
peptide: RNCFESVAALRRCMYG
notes: Unlabelled peptide mixed in slight molar excess with 1.5 mM 13C/15N IGF-1 for NMR
B1: the binding result is recorded as “binds”.

The values are drawn from patent publication US20060287510A1 (Genentech, published 2006).
